# Patent US7718391B2, “Assays for identifying modulators of rhomboid polypeptides” (Medical Research Council, priority 2001, dated 2010)
# T1: Drosophila Gurken
# T1 sequence: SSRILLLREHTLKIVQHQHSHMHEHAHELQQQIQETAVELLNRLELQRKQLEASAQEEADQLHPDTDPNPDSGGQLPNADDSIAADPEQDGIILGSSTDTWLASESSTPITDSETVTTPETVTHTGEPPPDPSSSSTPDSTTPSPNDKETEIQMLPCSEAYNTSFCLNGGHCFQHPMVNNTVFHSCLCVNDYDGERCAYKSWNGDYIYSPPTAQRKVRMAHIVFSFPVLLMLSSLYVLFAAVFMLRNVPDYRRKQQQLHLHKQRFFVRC
# T2: Drosophila EGF receptor (UniProt P04412)
# T2 sequence: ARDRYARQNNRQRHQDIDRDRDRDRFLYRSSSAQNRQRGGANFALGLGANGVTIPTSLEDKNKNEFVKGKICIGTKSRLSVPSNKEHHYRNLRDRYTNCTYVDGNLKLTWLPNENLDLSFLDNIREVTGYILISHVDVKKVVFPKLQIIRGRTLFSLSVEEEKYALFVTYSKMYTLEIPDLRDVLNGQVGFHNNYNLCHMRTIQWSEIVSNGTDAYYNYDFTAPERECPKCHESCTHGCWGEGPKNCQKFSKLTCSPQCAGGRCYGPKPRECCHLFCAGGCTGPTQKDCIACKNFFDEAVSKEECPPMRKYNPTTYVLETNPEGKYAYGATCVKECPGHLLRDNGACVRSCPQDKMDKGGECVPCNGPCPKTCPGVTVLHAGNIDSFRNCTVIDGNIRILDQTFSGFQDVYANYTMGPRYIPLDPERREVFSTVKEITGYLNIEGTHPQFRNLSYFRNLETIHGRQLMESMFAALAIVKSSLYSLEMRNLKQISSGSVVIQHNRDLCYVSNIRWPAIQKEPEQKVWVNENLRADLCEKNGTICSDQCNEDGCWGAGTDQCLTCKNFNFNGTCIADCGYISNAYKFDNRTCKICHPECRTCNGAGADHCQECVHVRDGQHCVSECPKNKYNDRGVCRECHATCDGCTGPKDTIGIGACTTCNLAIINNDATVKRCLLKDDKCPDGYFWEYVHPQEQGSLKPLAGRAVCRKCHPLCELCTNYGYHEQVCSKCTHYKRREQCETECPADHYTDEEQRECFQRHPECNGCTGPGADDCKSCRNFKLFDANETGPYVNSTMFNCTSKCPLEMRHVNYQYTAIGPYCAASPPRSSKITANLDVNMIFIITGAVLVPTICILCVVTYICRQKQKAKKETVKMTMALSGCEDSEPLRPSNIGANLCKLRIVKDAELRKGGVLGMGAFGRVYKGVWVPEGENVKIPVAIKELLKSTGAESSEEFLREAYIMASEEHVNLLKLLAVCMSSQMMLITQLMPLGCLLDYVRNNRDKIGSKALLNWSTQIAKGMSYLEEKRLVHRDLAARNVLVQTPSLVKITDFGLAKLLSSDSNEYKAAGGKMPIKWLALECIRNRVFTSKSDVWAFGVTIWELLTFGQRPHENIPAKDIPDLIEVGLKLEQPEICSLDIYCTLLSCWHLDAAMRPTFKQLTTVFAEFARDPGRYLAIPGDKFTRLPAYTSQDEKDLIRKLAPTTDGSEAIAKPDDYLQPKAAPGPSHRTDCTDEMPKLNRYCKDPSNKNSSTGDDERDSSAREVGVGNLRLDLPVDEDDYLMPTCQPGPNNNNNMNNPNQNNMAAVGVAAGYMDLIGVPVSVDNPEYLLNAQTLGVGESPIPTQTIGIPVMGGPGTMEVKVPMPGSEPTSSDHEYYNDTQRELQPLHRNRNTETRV
# T3: GFP-Spitz (Drosophila Spitz with EGFP inserted between residues 33 and 34)
# T3 sequence: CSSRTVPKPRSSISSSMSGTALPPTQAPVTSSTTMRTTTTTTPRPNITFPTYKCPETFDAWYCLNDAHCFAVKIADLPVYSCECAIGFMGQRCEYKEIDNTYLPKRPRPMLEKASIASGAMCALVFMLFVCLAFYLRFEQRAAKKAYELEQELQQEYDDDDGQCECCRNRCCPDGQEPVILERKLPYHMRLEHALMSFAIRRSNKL
# T4: Drosophila Keren
# T4 sequence: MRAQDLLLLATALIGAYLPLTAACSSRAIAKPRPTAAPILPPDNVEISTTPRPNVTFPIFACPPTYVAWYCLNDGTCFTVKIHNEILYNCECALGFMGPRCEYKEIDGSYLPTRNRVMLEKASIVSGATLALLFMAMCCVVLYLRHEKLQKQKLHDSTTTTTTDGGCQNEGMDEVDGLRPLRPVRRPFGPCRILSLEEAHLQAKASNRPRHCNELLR
# T5: Rhomboid-1 (Drosophila melanogaster, UniProt P20350)
# T5 construct: When co-expressed with Star and full-length Rhomboid-1 in the COS cell Spitz cleavage assay; expressed in transfected cells; host or cells: COS cells, pcDNA3.1 constructs, transient transfection
# T5 sequence (P20350 1-355): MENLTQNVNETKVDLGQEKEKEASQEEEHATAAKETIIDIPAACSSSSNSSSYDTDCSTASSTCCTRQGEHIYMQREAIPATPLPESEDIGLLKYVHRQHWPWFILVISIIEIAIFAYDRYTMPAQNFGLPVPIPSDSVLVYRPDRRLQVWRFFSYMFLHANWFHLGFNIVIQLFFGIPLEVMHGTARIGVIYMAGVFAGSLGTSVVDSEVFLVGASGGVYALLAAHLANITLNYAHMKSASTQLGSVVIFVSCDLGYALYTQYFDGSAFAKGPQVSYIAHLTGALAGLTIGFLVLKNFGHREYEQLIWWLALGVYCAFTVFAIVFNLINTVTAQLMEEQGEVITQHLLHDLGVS
# Assays:
# zebrafish RHBDL2 = test: Zebrafish RHBDL2 knockout by antisense morpholino injection into embryos; assay type: in vivo, Zebrafish (Danio rerio); details: injected into 1-4 cell embryos at 2-4 μM, assessed after 24 and 48 hours
# Experimental: Knockout of the zebrafish RHBDL2 was performed by standard procedures (McClintock J M, Kheirbek M A, Prince V E. 2002. Development. 129, 2339-2354.). A morpholino antisense oligonucleotide ([…]) SEQ.ID. 7 complementary to the region of the cDNA surrounding the start of translation was injected into 1-4 cell embryos at 2-4 μM. After 24 and 48 hours the phenotype was assessed and compared with wild-type embryos of equivalent stages. In situ hybridisation to RHBDL2 was performed by standard techniques.
# To investigate the role of vertebrate Rhomboids, the zebrafish homologue of human RHBDL2 (sequenced from cDNA clone 2652120, GenBank accession number AW422344) was knocked out using the standard technology of antisense morpholino oligonucleotides (reviewed in Heasman J. Dev Biol. Mar. 15, 2002;243(2):209-14), which allows the rapid removal of a gene function. Zebrafish embryos are a common model system as their embryonic development is easily observed.
# [1] = tested on: uncleavable Spitz-TGFα chimera (Spitz with residues 140-160 replaced by the equivalent residues from TGFα, with the TGFα C-terminus)
# Drosophila Gurken = tested on: T1, Drosophila Gurken
# [2] = tested on: human TGFα (EGFP inserted between residues 32 and 33)
# Drosophila EGF receptor = target: T2, Drosophila EGF receptor
# [3] = tested on: T3, GFP-Spitz (Drosophila Spitz with EGFP inserted between residues 33 and 34)
# Drosophila Keren = tested on: T4, Drosophila Keren
# release of TGFα = test: Release/secretion of TGFα from transfected COS cells; assay type: cell-based, human; details: expression of truncated Rhomboid-1, compared with control
# Experimental: COS cells were grown in DMEM medium (supplemented with 10% foetal calf serum), and transfected with FuGENE 6 Transfection Reagent (Roche). Cells were transfected in 35 mm culture wells with 25-250 ng of each construct and empty plasmid to bring the total DNA to 1 μg per well. 24-30 hours post-transfection the medium was replaced with serum-free medium; this was harvested 24 hours later and cells were lysed in SDS-sample buffer. GFP was detected in conditioned medium and cell lysates by western blot with a rabbit polyclonal antibody. For some experiments the serum-free medium was supplemented with the metalloprotease inhibitor batimastat (British Biotech) or ilomostat (Calbiochem).
# Spitz, Star and Rhomboid-1 are the only Drosophila proteins present in the transfected mammalian cells. A possible hypothesis is that these proteins are able to recruit a mammalian protease to a processing complex. If this were the case, the principle candidate for the putative mammalian protease would be a member of the ADAM family of metalloproteases. These proteases have broad specificity and are responsible for the release of a large number of mammalian growth factors, including the Spitz homolog, TGFα. The possible involvement of these proteases was tested with the potent metalloprotease inhibitor batimastat (British Biotechnology) at 1 μM and 10 μM. […]
# Rhomboid-1 = target: T5, Rhomboid-1; test: Rhomboid-1 and Star dependent cleavage of GFP-Spitz in transfected COS cells (western blot of medium); assay type: cell-based; details: co-expressed with Star and full-length Rhomboid-1 in COS cells
# Experimental: COS cells were grown in DMEM medium (supplemented with 10% foetal calf serum), and transfected with FuGENE 6 Transfection Reagent (Roche). Cells were transfected in 35 mm culture wells with 25-250 ng of each construct and empty plasmid to bring the total DNA to 1 μg per well. 24-30 hours post-transfection the medium was replaced with serum-free medium; this was harvested 24 hours later and cells were lysed in SDS-sample buffer. GFP was detected in conditioned medium and cell lysates by western blot with a rabbit polyclonal antibody. For some experiments the serum-free medium was supplemented with the metalloprotease inhibitor batimastat (British Biotech) or ilomostat (Calbiochem). Cells were transfected as standard with 1 ng of Rhomboid-1 DNA (in 1 μg total DNA) and were then incubated in serum-free medium for 24 hours. The medium was then replaced with 0.5 ml serum free medium containing protease inhibitor at the indicated concentration and incubated for 1 hour. After 1 hour, the medium was collected, cleared by centrifugation, dialysed overnight against several changes of water and lyophilised. The resulting pellets were re-suspended in SDS sample buffer, boiled and analysed by Western blot. Transfections with a secreted form of Spitz were used in parallel to control for non-specific toxicity of the protease inhibitors or general inhibition of the secretory pathway. The proteolytic cleavage assay was recapitulated in a mammalian tissue culture system. Spitz was tagged with GFP near its N-terminus and transiently expressed in COS cells, in the presence or absence of Star and/or Rhomboid-1. The accumulation of the soluble extracellular fragment of GFP-Spitz in the cell medium was then measured by western blot.
molecule,measurement,setting,value
anti-sense morpholino oligo TCTTGCTCTTCGGTGTCATTATCGC: morpholino antisense oligonucleotide complementary to the region of zebrafish RHBDL2 cDNA surrounding the start of translation (all phosphorodiamidate morpholino (PMO)),embryo phenotype after knockout,zebrafish RHBDL2,"specific defects in the brain, the otic placode and the tail"
Drosophila Rhomboid-4,cleavage of polypeptide substrates,[1],"Rhomboid-4 cleaves all the polypeptide substrates tested so far, including ... the 'non-cleavable' Spitz/TGFα chimera"
same,cleavage of polypeptide substrates,Drosophila Gurken,"Rhomboid-4 cleaves all the polypeptide substrates tested so far, including ... Gurken"
same,cleavage of polypeptide substrates,[2],"Rhomboid-4 cleaves all the polypeptide substrates tested so far, including ... human TGFα"
same,cleavage of polypeptide substrates,Drosophila EGF receptor,"Rhomboid-4 cleaves all the polypeptide substrates tested so far, including ... the completely unrelated Drosophila EGF receptor"
same,cleavage of polypeptide substrates,[3],"Rhomboid-4 cleaves all the polypeptide substrates tested so far, including Spitz"
same,cleavage of polypeptide substrates,Drosophila Keren,"Rhomboid-4 cleaves all the polypeptide substrates tested so far, including ... Keren"
"Rho-1-NTM1: residues 1 to 149 of Rhomboid-1: N-terminal cytoplasmic domain plus first TMD and part of first extracellular loop; dominant negative (protein, UniProt P20350 1-149, looked up, fragment) MENLTQNVNETKVDLGQEKEKEASQEEEHATAAKETIIDIPAACSSSSNSSSYDTDCSTASSTCCTRQGEHIYMQREAIPATPLPESEDIGLLKYVHRQHWPWFILVISIIEIAIFAYDRYTMPAQNFGLPVPIPSDSVLVYRPDRRLQ",TGFα synthesis or secretion,release of TGFα,did not interfere
same,ability of wild-type Rhomboid-1 to promote GFP-Spitz cleavage,Rhomboid-1,inhibited
